According to US20070020269A1 (published 2007):

Key:
[1] = target: T1, p21-C (UniProt P38936 91-164); assay: co-immunoprecipitation (anti-myc IP, anti-flag blot), co-transfected 293T cells
T1 construct: not shown: myc-tag from pcDNA3 vector
Excerpt: (§1) In order to determine the interacting regions of RX50 and p21, the 293T cells were co-transfected with RX50 and p21, RX50 and p21-D1, RX50 and p21-D2, RX50 and p21-D3, RX50 and p21-C, RX50 and p21-N, respectively. The transfected cells were allowed to grow 24 hrs before lysis. The supernatant was collected by centrifugation. The […] were subjected to immunoprecipitation with anti-myc antibody and Protein G. The product of co-immunoprecipitation was electrophoresised on SDS-PAGE, transferred onto a nitro cellulose membrane, and then subjected to immunoblot with a enzyme-labeled anti-flag antibody. […] It was inferred that the region of p21 interacting with RX50 was located between amino acid residue 40 to 60 of p21.

[2] = target: T2, p21-D3 (UniProt P38936 60-164); assay: as above
T2 construct: not shown: myc-tag from pcDNA3 vector
T2 sequence (P38936 60-164): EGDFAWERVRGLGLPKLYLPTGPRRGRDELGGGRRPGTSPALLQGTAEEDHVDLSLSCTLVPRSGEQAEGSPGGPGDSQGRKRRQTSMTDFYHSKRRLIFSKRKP
Excerpt: as §1

T1 sequence (P38936 91-164): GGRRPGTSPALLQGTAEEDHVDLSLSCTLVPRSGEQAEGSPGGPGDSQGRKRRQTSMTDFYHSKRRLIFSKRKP

B1: Flag-RX50 (enzyme)
chain: MHGYFGCNAAAEPGYSAFVGTPQICVTKFSTRNCQGMDSVIKPLDTIPEDKKVRVQRTQSTFDPFEKPANQVKRVHSENNACINFKTSSTGKESPKVRRHSSPSSPTSPKFGKADSYEKLEKLGEGSYAYVYKGKSKVNGKLVALKVIRLQEEEGTPFTAIREASIIKGLKHANIVLLHDIIHTKETLTLVFEYYHTDLCQYMDKHPGGLHPDNVKLFLFQLLRGLSYIHQRYILHRDLKPGNLLISDTGELKLADFGLAKAKSVPSHTTSNEVVYLWYRPPDVLLGSTEYSTCLDMWGVGCIFVEMIQGVAAFPGMKDIQDQLERIFLVLGTPNEDTWPGVHSLPHFKPERFTLYSSKNLRQAWNKLSYVNHAEDLASKLLQCSPKNRLSAQAALSHEYFSDLPPRLWELTDMSSIFTVPNVRLQPEAGESMRAFGKNNSYGKSLSNSKH
notes: Expressed in transfected 293T cells; also called RX50 protein; not shown: N-terminal flag-tag from modified pcDNA3.1
B1: no binding [1]; no binding [2].
